This data set concerns the molecule itself. The experiment in a line: ITC; dissociation by dilution: 900 μM MAM domain in the syringe titrated into buffer (20 mM Tris pH 8.0, 100 mM NaCl), one 0.4 μL and 19 injections of 2 μL, at 15°C and 20°C; dimer or oligomer to monomers.

B1: MAM domain of human neuropilin-1 (residues 628-813), wild-type glycosylated (domain or fragment, UniProt O14786 628-813, looked up)
chain: ATEKPTVIDSTIQSEFPTYGFNCEFGWGSHKTFCHWEHDNHVQLKWSVLTSKTGPIQDHTGDGNFIYSQADENQKGKVARLVSPVVYSQNSAHCMTFWYHMSGSHVGTLRVKLRYQKPEEYDQLVWMAIGHQGDHWKEGRVLLHKSLKLYQVIFEGEIGKGNLGGIAVDDISINNHISQEDCAKPA
modifications: glycosylated at serine and threonine residues upstream of the predicted MAM domain (O-linked glycosylation sites)
notes: Neuropilin-1 (NRP1), human, amino acid residues 628-813 (linker region and MAM/c domain); also called NRP1 MAM domain; NRP1 MAM; source: FreeStyle HEK293-F cells, transfected, secreted
With B1, the dissociation constant Kd (commonly a measure of binding affinity in units of concentration) is more than 900 µM.

The values above are taken from article PMC5104691, “Crystal Structure of the Neuropilin-1 MAM Domain: Completing the Neuropilin-1 Ectodomain Picture” (Structure(London, England:1993), 2016).
